# Data from the DeepSol protein solubility set.
# Assay: soluble on expression in E. coli; label from the status in PepcDB or PDB records
row,Sequence,soluble on expression in E. coli
1,MTTMTPDAAGLAALEARLKQDLAWLELPAKSWVPRRVVDGKSVVDVVIVGAGMAGLVASAMLRRLGVDNQLVLDRARAGEEGPWVTFARMRTLRSPKELTGPAMGMPALTFRAFYEAQYGRQAWQALDRAPRTMWMDYLIWYRKVLDLPVRNGVSVERIHARTDELFALDISEGGTSRQILARHVVLATGRDGLGGAYVPSLCDGIDRRFWAHSSAPIDFERLRGRRVAVVGAGASAMDNAAMALEAGAARLDLFIRRADIPRVNKFTGIGSQGVVHGFAGLSDDWKWRFLDHTLKAQTPPPRQSVLRVSAYPQAHFHLASPIDDLAVAGDHLTVTTPKGRYATDFIIFGTGFKVDLALRDELAEFAPHIRFWCDRFPAPDGMDNAELENSPDLGDSFQFLEKEPGACPMLARLHCFNYPATLSHGKLSGDIPAISEGADRLARGIVRRLFVEDREIHFANLKAFATPELAGDEWQDADVTHQPAE,soluble
2,MTTPTFDINAAIQALREGKDLTGKDGILTPLIKQLTEAALAAELDGHLASTEGANRKNGKTTKTVKSPLGNFELNTPRDRAGTFEPQLVKKHQTQLTDEMERKIIGLFSLGSSYQDIRAHIEDMYGMSVSNGTVNAITDKLLPELQAWRERELEPLYPVIWLDAIHYKIKENGRFISKAVYTILALNVEGKKELLGLYLSDNEGAHHWLSVLTDLYNRGVKDILIACVDGLKGFPEAIATIYPQTEVQLCVIHQIRNSMKYVASKHQKAFMADLKCVYKAATLNAAEMALDELETKWGDKYPVVIKSWRNKWALLSVYFKYPDYVRTAIYTTNAVEAVHRQFRKLTKTKGGFANENSLLKLLYAGILKASERWTHPIQNWNLTLSQLSIHFEGRLENHIDL,not soluble
3,MTTPYCFNLAMRKSSRLITQFYEDRLSAVGLKSGQFSILKAVSFLKQTSNKELQGILVLDQTTLSRNLKPLFRDGYLKLSPDSNDARVKLISLTTQGQALYEKADPLWQKAQDDLEKKLGSEEVKNILTLADSFVKALAR,not soluble
4,MTTRDLFADHAPADDRRIALGEAAVVLRGFALAEATALLAAIDDIARQAPFRHMVTPGGFEMSVALTNCGALGWTSDRRGYRYAARDPQTGQPWPPLPDCFLRLARDAAAAAGFPGFTPDACLINRYVPGARLSLHQDKDEQDYGAPIVSVSLGMPAMFLWGGHRRTDKTLRVPLFHGDVVVWGGPDRLRYHGVLPLKEAAHPLLGAQRINLTLRRAGLEHHHHHH,soluble
5,MTVDNFRLQVLANHCTAAAEAMGYTLMRTAYSTFVKETEDFSAQLMTPAGKTFASPKTFGATWYTGLDYGRVIAMFDDYREGDIYLTNDPYSGFVATHTPDMHVWKPVFRDGRLVCFVGSHIHNTDMGGAVPASLSRTLTEVHQEGLRIPPMLLARDGVIDEKVLRIMEVNVRMPEQNRGDLNAQIAALNVGERKVHEIIDRFGVDEFMQGAEAILDYAEQQTRALIREIPDGEYRFAEYADEDTVGGYPCRIQITLRVRGDELELDFTGSDPQVASSLNVPTGGDGHHSVITVGLIYVMHTLAPRNVLNAGSVRPCRAVLPEGTVVNPQAPAAVGMRSLMAAVIQACTFGVFSRAMPDRLPACPAGGSTLLNVKTATREGRQVLSSIGPCGGGAGGGPEHDGVEGCGANNAFLKNTPVEINEAEVPIEIIRYGLVPDTGGAGRQRGGNAATMEFRLLAPNGVVTARNRNRSELAAWGVMGGKAGANSRFIRNPDSDAPEELRNSDLVNCAPGDVIRLQGPAGGGYGHPYERPIEQVVED,not soluble
6,MTVGGMQPVSIMGKHLNNFERLSILEDYLSGSDSKVAIEQKYGLSHGLIRSWLSKFGLEDKVHPVPMKVSQSPQSELPLNEKEELEQLRKENRVLKSRLKREELGHQAYKLLVELAEETYGIQIRKNSEAK,not soluble
7,MTVGMSGFTRAGEAKAVPLALAERAKTNPMKITLMTGASLGNDLDKTMVEAGMLARRMPFQSDPALRKAINDGRVMFIDQHLSETVEQLRGGQIHGVDIAIVEAVAITAEGGIVPTTSVGNSASFAILADKVIVEINLSQPEVLEGLHDIFIPAKRPTRMPIPVVATDSRVGLPFIPVPPEKIAAIVLSDKSDSFSTVLPPDDETKAIAGHLTEFLLNEVRHGRMTHELQPLQAGIGTIANAVMHGFIDTPFHDLKMYSEVLQDSTFELFDAGKLTFASGSSITLSSAMNEQVMPRLSEYKSRLILRPQEVSNHPEVIRRLGIIGINTALEFDIYGNVNSTHVGGTHMMNGIGGSGDFARNAYMSIFVTKSIAKGGAISSVVPMVSHVDHTEHDVDILVTETGLADLRGLAPRERAAVIIANCVHPSYRDALTDYYQRAAARGGHTPHLIEEALSWHNALRERGTMLPQRLEHHHHHH,not soluble
8,MTVQQKIASGRSSGRTVSQERLNQLSEQTRRAIAQLEPVTLDWVAPVATDMDVAVIGGGQSGVAIAFGLRRAGIRRVQVFDAATPETAGVWNTIARMHTLRAGKGFTGLEQGIPELTFEHWYVALHGDAAFAAMAEIPRTVWLDYLNWYRETAGIDVRWQHRLISIDPRSDAENAPLNLRFELQDKGVIDLSTQTIVLATGLDGLGEPYIPSVLSHTLPPDRLVHTNDLINFSSLRGLSVGVVGAAASAFDAAAVALEHGAASVHQFVRHGDLVEANDQAAARPSADKLFFPEFDDAMRWRLILERRRRSSAPDAAIARACQHPNHYLHFNVAAEQIVALGDDIVARTTTGDIMLDTVIAATGYRQNVYARPELTAAAPHILLWQDRVAAAEGESGWSSHPYLGKGFELQEIEPGSAPWLKRIHVYTFAAIISHGIHAGDIGSAAIALPRLIAAVARSLFIHARADYERLASLGPSIAVDRVAPSPVSGPWEAAPLEHHHHHH,soluble
9,MTVQTAIFDLIKQAKTIIIHRHQRPDPDAIGSQLGLAAIIKASFPAKRVLTPGKQYHGFDWLGQMDEVTEADYQDALVLILDTANQPRIDGELWNQGKTIVKIDHHPNDDAFGDPQWVDVDASSTSEMIYNWYAPLAAELTLTANAARLLYAGIVGDTGRFLYSATKPSTMRAAAALMEAGADAEAVNRIEDTITLPVARLSAYVYEHLTQLDSGAAYVILTNAILDSFAIGDASTAGVVPLPGRIDTVKCWAIFVQQKEGDFRIRLRSKGPSINGVAKNHDGGGHALASGAKAKDQQEIETVVRELDQVASQYEKEVLEHHHHHH,not soluble
10,MTVRRTAAARRGRDRKAEIVFPAPGADRFGRGDEPSVAVIGGGIAGLAAATLMAERGARVTLYEKEDAVGGRLSGRRTTLADGSAVTMTRGFHAFFRQYYNLRGLLRRTDPGLDRLTPLPDYPLRHSGGLTDGFARVPRTPPLSAIGFVALSPTFGWRDLAAMDPRAALPLLDVRVPQVYERFDGVTATAFLESVRFPEAAHHLAFEVFSRSFFADPRRLSAAELLLMFHIYFLGSSEGLLFDVPVEPFPQALWNPLGDYLRRLGADVRTGTPVHGILPRADGGADVLTDTGADRHQAVVLALDTAGLRQTVAASPGLGTDTWRDGIAALRTAPPFLVSRLWLDRPVDADRPGFLGTSGYGGLDNVSVLERYEGEAARWAARTGGSVVELHAYAVDPAAEPKEVQDELVDRLHQAYPETREARVVDARHEWRADCPMFEVGSHRRRPTVRTPHPWLTLAGDGIRCDLPVALMERAATTGFLAANALLADRGVRGQVLWTVPRTGRSPVLRAFGAVAGHRSAPLEHHHHHH,not soluble
11,MTVVIGLTGGIASGKSTVSQMFRELSIPVIDADIIAREVVEKGKPAYNKIVEVFGTEVLQEDGELDRPKLGSVVFYNEEKRLQLNKIVHPAVREEMNRQKEMYIKEGMQAVVLDIPLLFESKLTSLVDRVLVVAVKPHTQLERLMKRNNFSEEEATARIQSQMPLEEKVKNADEVINNDGTIMGTKTQLQAILKKWNIID,not soluble
12,MTVWDRPEPPHRPVPLDRERIVAAAVALADEGGLTAVSVRKVAARLDAGPMRLYGFISTKDELFDLMVDAVYAEILPEERAGDWREALRVLAHRTRQAALRHPWLADLLGGRPALGPNGLAVAEATLAALDGLADVDTVMRAVETVSSYFTGAVRREIADLRAERATGLSKPEWQREHGPHLTRMLATGRYPALAKAVHDGTHVDAEESFATGLDWVLDAVAVRLARPPGS,not soluble
13,MTYAVEFDNVSRLYGDVRAVDGVSIAIKDGEFFSMLGPSGSGKTTCLRLIAGFEQLSGGAISIFGKPASNLPPWERDVNTVFQDYALFPHMSILDNVAYGLMVKGVNKKQRHAMAQEALEKVALGFVHQRKPSQLSGGQRQRVAIARALVNEPRVLLLDEPLGALDLKLREQMQLELKKLQQSLGITFIFVTHDQGEALSMSDRVAVFNNGRIEQVDSPRDLYMRPRTPFVAGFVGTSNVFDGLMAEKLCGMTGSFALRPEHIRLNTPGELQANGTIQAVQYQGAATRFELKLNGGEKLLVSQANMTGEELPATLTPGQQVMVSWSRDVMVPLVEER,not soluble
14,MTYDALHVFDWIKARSGDNPVYIWGHSLGTGVATNLVRRLCERETPPDALILESPFTNIREEAKSHPFSVIYRYFPGFDWFFLDPITSSGIKFANDENMKHISCPLLILHAEDDPVVPFHLGRKLYNIAAPSRSFRDFKVQFIPFHSDLGYRHKYIYKSPELPRILREFLGKSEPERQH,not soluble
15,MTYFIDVPTMSDLVHDIGVAPFIGELAAALRDDFKRWQAFDKSARVASHSEVGVIELMPVADKSRYAFKYVNGHPANTARNLHTVMAFGVLADVDSGYPVLLSELTIATALRTAATSLMAAQALARPNARKMALIGNGAQSEFQALAFHKHLGIEEIVAYDTDPLATAKLIANLKEYSGLTIRRASSVAEAVKGVDIITTVTADKAYATIITPDMLEPGMHLNAVGGDCPGKTELHADVLRNARVFVEYEPQTRIEGEIQQLPADFPVVDLWRVLRGETEGRQSDSQVTVFDSVGFALEDYTVLRYVLQQAEKRGMGTKIDLVPWVEDDPKDLFSHTRGRAGKRRIRRVA,soluble
16,MTYHLQGTTGYGLGDSGRETLDRVMARILGTEAALVRGQFVSGTHAIATALFGVLRPGDHFISVTGDPYDTLEEVIGIRGTGQGSLKDFGVSYDSVPLSEEGTIQHSLVSQGIKPNTKMLILQRSRGYAWRNSLPMEQIAAFVAYVREHFPHLIIFVDNCYGELVEKCEPGDVGADLMAGSLIKNLGGSLAPTGGYIAGRQELVEKAACRLTAPGIGGEVGATLSWQLQFFQGLFFSPLEHHHHHH,not soluble
17,MTYTSLKSPENQDYIYDLTIAHLYGNLMNTYGDNGNILMLKYVAEKLGARVTVDIVSINDTFEQDDYDIVFFGGGQDYEQSIVAKDLPSKKAALADYIANNKVVLAICGGFQLLGQYYVQANGVKIDGLGIMGHYTLNQHQNRFIGDIKIHNDEFNETYYGFENHQGRTFLSGDEKPLGRVVYGNGNNKEDQTEGVHYKNVYGSYFHGPILSRNVNLAYRLVTTALKKKYGSAISLPSYDDILKQEITEEYADLKSKASFNKV,not soluble
18,MTYVLAESPEFYQDNVTDYTGQISSSDITNIQAAIDDVKASEQKVIFVVFLSSFDGVDPETWTQQALQANGGGNVLIYALAPEERQYGIQGGTQWTDAELDAANNAAFQALSQEDWAGSALALAESVGSSSSSSLEHHHHHH,not soluble
19,MTYYNVGKIVNTQGLQGELRVLSVTDFADERFKKKSVLALFDDKDNYIMDVEVASHRKHKNFDIVKFKGLYHINDVEKYKGCSLKIAEENLTDLDDGEFYYHEIIGLDVYEGNTLIGQVKEILQPGANDVWVVKRKGKKDLLLPYIPPVVLDVDVAAGRIEVELMEGLDDEDLEHHHHHH,soluble
20,MVAAAVVGTAAVGTKAATDPRSVGTQVDDGTLEVRVNSALSKDEQIKKEARINVTAYQGKVLLVGQSPNAELSARAKQIAMGVDGANEVYNEIRQGQPIGLGEASNDTWITTKVRSQLLTSDLVKSSNVKVTTENGEVFLMGLVTEREAKAAADIASRVSGVKRVTTAFTFIKLEHHHHHH,not soluble
